How the values were obtained:
[1] = system: Human osteoblasts (HOB) cells; experiment: Cell attachment on wells coated with BSA-conjugated extended P1 peptide, BSA or FN; assay type: cell-based; conditions: soluble peptide 100 μg/ml, compared to RAD control peptide
Procedure: 96-Well ELISA plates were coated with 1 μg/ml of bovine serum albumin (BSA) conjugated peptide (“Extended P1”: […]c; SEQ ID NO:29) conjugated through its C-terminal cysteine via Beta-maleimidopropionic acid N-hydroxysuccinimide ester (MPS). Peptides were dissolved in NaHCO3/Na2CO3 coating buffer, pH 9.6 and plates coated at 4° C. for overnight. Wells coated with 1 μg/ml BSA NaHCO3/Na2CO3 coating buffer or 5 μg/ml FN in 50 mM Tris-HCl, pH 7.4 were used as the control coating materials. Human osteoblasts (HOB) cells in suspension was treated with 100 μg/ml RAD (GRADS; SEQ ID NO:9) or RGD (GRGDTP; SEQ ID NO:8) peptide for 20 min, the cells (3×10^4/well) were seeded into the wells, previously washed with 50 mM Tris-HCl, pH 7.4, and allowed to settle for 30 min. Attached cells were washed once with PBS, pH 7.4, and then fixed with 3.7% paraformaldehyde, further permeabilized with 0.1% (v/v) Triton® X-100 detergent in PBS, and co-stained with May-Grunwald and Giemsa stains as described previously.

[2] = Binding of TG2 to heparin SEPHAROSE, elution with NaCl gradient; conditions: compared with wt TG2
Procedure: HEK cells, transiently transfected with wild-type and mutant TG2 were washed twice with ice cold PBS, pH 7.4 and lysed by the addition of 150 μl of 20 mM Tris-HCl pH 7.4, 10 mM EGTA, 2 mM EDTA, 1 mM NaF and 1 mM Na3VO4. After clarification by centrifugation, lysates were mixed with 450 μl of 50 mM Tris-HCl, 1 mM EDTA, 1 mM DTT, pH 7.5 and applied to a 5 ml Heparin SEPHAROSE® column (GE Healthcare) equilibrated in 50 mM Tris-HCl, 1 mM EDTA, 1 mM DTT pH 7.5 (buffer) at a flow rate of 1 ml/min. For the analysis of GTP-bound TG2 (closed conformation), lysates were pre-incubated for 1 h at room temperature with 0.5 mM GTP in 50 mM Tris-HCl, 2 mM MgCl2, 1 mM EDTA, 1 mM DTT pH 7.5. For the analysis of inhibitor-reacted TG2 (open conformation), lysates were incubated with 0.5 mM of irreversible inhibitor R281 (Griffin et al., 2008) and 10 mM CaCl2. The column was washed with 25 ml of buffer and protein was eluted with a linear gradient of increasing NaCl concentration (0-1M) in buffer. Fractions were assayed for TG2 activity and analysed for the presence of TG2 antigen by SDS-PAGE and Western blotting using CUB7402.

[3] = system: FN; experiment: Measurement of TG2 binding to FN by ELISA (cell lysates); conditions: lysates of transfected HEK293T/17 cells, normalised for expression
Procedure: Microtitre 96 well plates were coated with 50 μl of 5 μg/ml FN in 50 mM Tris-HCl, pH 7.4 at 4° C. overnight. The wells were blocked for 30 min with 5% (w/v) fat-free milk in PBS, pH 7.4 and washed twice with PBS-TWEEN® detergent, pH 7.4 and once with PBS, pH 7.4. Aliquots (100 μl) of cell lysate containing 60 μg protein were added to the FN-coated wells and incubated for 1 h at 37° C. After washing three times with PBS, pH 7.4, wells were blocked with 100 μl 3% BSA in PBS, pH 7.4 (blocking buffer) for 30 min at room temperature and then incubated with 100 μl Cub7402 (1:1000 dilution in blocking buffer) for 2 h at 37° C. After washing three times with PBS, pH 7.4, the wells were incubated with 100 μl rabbit anti-mouse IgG-HRP conjugated antibody (1:1000 dilution in blocking buffer) for 2 h at 37° C. HRP was detected by the addition of 100 μl of o-phenylenediamine substrate solution (SigmaFast […]™ OPD, Sigma). Colour development was terminated by the addition of 50 μl of 2.5M H2SO4 and absorbance at 490 nm was measured. The amount of TG2/mutant TG2 binding to the FN was normalised between samples by using the densitometry values from Western blotting for the TG protein found in each of the cell lysates used. α-Tubulin was used to normalise for any differences in protein loading.

[4] = system: NIH 3T3 cells; experiment: Detection of TG2 at cell surface (biotinylation), in ECM and in culture medium of transfected cells; assay type: cell-based, mouse; conditions: transfected NIH 3T3 cells, biotinylation and Western blot, vs wild-type TG2
Procedure: Cell surface proteins were labelled by biotinylation as described previously (Wang et al., 2010). Briefly, cell monolayers were rinsed three times with ice-cold PBS pH 8.0 and labelled with 0.8 mM sulfo-NHS-LC-biotin dissolved in PBS pH 8.0 at 4° C. for 20 min. Cells were then washed with 50 mM Tris-HCl, pH 8.0 and lysed with 1% SDS at 4° C. in PBS pH8.0. Following denaturation at 95° C., cell lysates were clarified by centrifugation at 14,000×g at 20° C. and 200 μg of protein was incubated overnight at 4° C. with NEUTRAVIDIN® avidin protein-Agarose resin. After washing three times with PBS pH 8.0, the biotin-labelled proteins were dissolved in 2× Laemmli buffer separated by SDS-PAGE and subjected to Western blotting.
Following transfection, cells were incubated for 24 h with 10% (v/v) serum, which was replaced with 1% (v/v) serum and TG2 expression was allowed to proceed for a further 48 h. Proteins from 1 ml of medium were precipitated by the addition of ice cold 20% (w/v) trichloroacetic acid (TCA) to a final concentration of 10% (w/v) Pelleted proteins were then washed once with ice cold 10% (w/v) TCA, ethanol-acetone (1:1) and acetone, and resuspended in 2× Laemmli buffer (Sigma-Aldrich, UK) and analysed by SDS-PAGE and Western blot analysis using monoclonal anti-TG2 antibody (Cub7402). The remaining cells were detached with 2 mM EDTA in PBS, pH 7.4 and the ECM was extracted with 0.1% (w/v) deoxycholate in PBS, pH 7.4. The residual deoxycholate-insoluble ECM proteins were dissolved in 2× Laemmli buffer for further analysis by SDS-PAGE and Western blotting using Cub7402.

Molecule	block of cell attachment on the FN matrix [1]	binding to heparin SEPHAROSE (in words) [2]	binding to FN compared to wild type TG2 [3]	presence on the cell surface [4]
GRGDTP [RGD peptide, synthetic RGD peptide from Calbiochem]	around 50%			
D94A, D97A: TG2 fibronectin binding site mutant (protein, UniProt P21980 2-687, looked up, variant D94A D97A) Protein-glutamine …: AEELVLERCDLELETNGRDHHTADLCREKLVVRRGQPFWLTLHFEGRNYEASVDSLTFSVVTGPAPSQEAGTKARFPLRDAVEEGDWTATVVAQQACTLSLQLTTPANAPIGLYRLSLEASTGYQGSSFVLGHFILLFNAWCPADAVYLDSEEERQEYVLTQQGFIYQGSAKFIKNIPWNFGQFEDGILDICLILLDVNPKFLKNAGRDCSRRSSPVYVGRVVSGMVNCNDDQGVLLGRWDNNYGDGVSPMSWIGSVDILRRWKNHGCQRVKYGQCWVFAAVACTVLRCLGIPTRVVTNYNSAHDQNSNLLIEYFRNEFGEIQGDKSEMIWNFHCWVESWMTRPDLQPGYEGWQALDPTPQEKSEGTYCCGPVPVRAIKEGDLSTKYDAPFVFAEVNADVVDWIQQDDGSVHKSINRSLIVGLKISTKSVGRDEREDITHTYKYPEGSSEEREAFTRANHLNKLAEKEETGMAMRIRVGQSMNMGSDFDVFAHITNNTAEEYVCRLLLCARTVSYNGILGPECGTKYLLNLNLEPFSEKSVPLCILYEKYRDCLTESNLIKVRALLVEPVINSYLLAERDLYLENPEIKIRILGEPKQKRKLVAEVSLQNPLPVALEGCTFTVEGAGLTEEQKTVEIPDPVEAGEEVKVRMDLLPLHMGLHKLVVNFESDKLKAVKGFRNVIIGPA		comparable elution profile to the wt enzyme	approximately 50%	greater levels

Source: patent US9657110B2, “Polypeptides and use thereof” (ASTON UNIVERSITY, priority 2011, dated 2017)
